US20160137740A1 (AstraZeneca / MedImmune, published 2016)
Positions count from the first letter of the chain named. “And” between values parts separate entries of the source, which are not always exact repeats. Equal entries are not always repeated.

How the values were obtained:
[1] = biological target: T1, Recombinant human TNFRSF5 (CD40) (human, UniProt P25942 21-193); assay: ELISA, plate coated with a dilution series of the recombinant TNFRSF protein [panel B]
T1 construct: Plate-adsorbed antigen of the ELISA
Procedure: (§1) An eight point, two-fold dilution series of each recombinant human TNFRSF protein was prepared after dilution of stock proteins to 5 μg/mL in PBS. Subsequently, 50 μL of each antigen dilution was transferred in duplicate to wells of a Nunc 96-well MaxiSorp flat bottom plate, and incubated overnight at 4° C. to adsorb proteins to the plate. Afterwards, plates were washed three times with PBS in a BioTek® plate washer to remove unbound protein. Anti OX40 mAb29, 9B12, and control antibodies were diluted in PBS to a final concentration of 10 μg/mL, and 50 μL of mAb were added to each well and incubated at room temperature for one hour to bind mAb to plate-bound protein. Thereafter, wells were washed with PBS/Tween-20 0.1% (volume/volume) using a BioTek® plate washer. HRP conjugated goat anti-human or goat anti-mouse secondary antibodies at 10 μg/mL was added to each well and incubated at room temperature for 1 hour. After three washes in PBS/Tween-20 0.1%, 50 μL of TMB substrate was added to each well and incubated at room temperature for 5 minutes to develop the colorimetric product. Reactions were stopped by adding 50 μL of 0.5 molar H₂SO₄ to wells, and plates read immediately at 450 nm using an Envision C plate reader for detection of the colorimetric product.

[2] = biological target: T2, Recombinant human TNFRSF14 (HVEM) (human, UniProt Q92956 39-202, limits assumed); assay: as above
T2 construct: Plate-adsorbed antigen of the ELISA
T2 sequence (looked up): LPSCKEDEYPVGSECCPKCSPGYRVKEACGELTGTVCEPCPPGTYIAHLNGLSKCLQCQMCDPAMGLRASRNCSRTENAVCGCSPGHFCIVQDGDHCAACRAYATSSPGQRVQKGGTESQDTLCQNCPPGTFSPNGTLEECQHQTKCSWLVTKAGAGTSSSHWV
Procedure: as §1

[3] = biological target: T3, Recombinant human TNFRSF6 (FAS) (human, UniProt P25445 26-173); assay: as above
T3 construct: Plate-adsorbed antigen of the ELISA
T3 sequence (looked up): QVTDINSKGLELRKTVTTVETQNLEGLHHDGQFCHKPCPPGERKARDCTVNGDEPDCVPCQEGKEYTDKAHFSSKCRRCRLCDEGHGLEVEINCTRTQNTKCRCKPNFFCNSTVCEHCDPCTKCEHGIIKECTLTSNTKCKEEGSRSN
Procedure: as §1

[4] = biological target: T4, Recombinant human TNFRSF11A (RANK) (human, UniProt Q9Y6Q6 30-212); assay: as above
T4 construct: Plate-adsorbed antigen of the ELISA; also called CD265
T4 sequence (looked up): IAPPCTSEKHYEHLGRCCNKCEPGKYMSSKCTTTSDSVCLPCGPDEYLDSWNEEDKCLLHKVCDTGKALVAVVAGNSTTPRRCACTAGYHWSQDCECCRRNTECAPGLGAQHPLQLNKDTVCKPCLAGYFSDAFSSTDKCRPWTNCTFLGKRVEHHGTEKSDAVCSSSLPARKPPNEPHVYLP
Procedure: as §1

[5] = biological target: T5, Recombinant human TNFRSF3 (LTβR) (human, UniProt P36941 28-227, limits assumed); assay: as above
T5 construct: Plate-adsorbed antigen of the ELISA
Procedure: as §1

[6] = biological target: T6, Human OX40 (human, UniProt P43489 29-277); assay: flow cytometry on activated primary human CD4+ T cells, AlexaFluor 488 anti-mouse IgG secondary [FIGURE 2A-D, con't.), panel C]
T6 construct: also called CD134; TNFRSF4
T6 sequence: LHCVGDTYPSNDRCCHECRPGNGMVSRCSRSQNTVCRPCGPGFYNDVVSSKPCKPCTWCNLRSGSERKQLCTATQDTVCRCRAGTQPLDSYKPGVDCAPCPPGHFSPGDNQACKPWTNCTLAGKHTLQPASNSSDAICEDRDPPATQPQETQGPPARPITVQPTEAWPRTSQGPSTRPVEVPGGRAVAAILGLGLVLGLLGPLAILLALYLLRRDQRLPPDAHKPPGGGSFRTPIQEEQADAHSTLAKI
Procedure: OX40mAb24 (10 μg/mL) or 9B12 (10 μg/mL) was diluted over a 17 point 2-fold dilution series. OX40mAb24 was added to 100,000 cells (activated primary CD4⁺ T cells or human OX40-overexpressing Jurkat NFkB-luciferase clone 64 cells) per well and incubated for one hour at 4° C. For background binding subtraction, cells were incubated in the presence of secondary antibody alone. […] Following secondary antibody incubation, cells were washed and suspended in 100 μL FACS buffer for flow cytometry analysis on a BD LSRII flow cytometer as described below.

[7] = biological target: T6, Human OX40; assay: cell-based or functional assay
[8] = biological target: T7, KO_L116+A126 (human OX40 aa Leu116 and Ala126 replaced with the mouse counterparts) (human, UniProt P43489 29-277); assay: flow cytometry, transfected 293F cells, column KO_L116A126 [FIGURE 32B con't]
T7 construct: Variant with a transmembrane domain, transient on 293F cells
T7 chain: T6 sequence with L88Q, A98V
Procedure: Forty-eight hours after transfection, HEK293F cells were incubated with 1 μg/mL of OX40mAb24 for 1 hour on ice in PBS. To detect bound OX40mAb24 by flow cytometry, the cells were washed 3-times with cold PBS, incubated with 1 μg/mL of Alexa480-conjugated anti-human IgG antibody for 1 hr on ice, and then analyzed using the LSRII flow cytometer.
The expression levels of all chimeric OX40 variants were also monitored by flow cytometry; the cells were incubated with a mixture of sheep anti-human OX40 and goat anti-mouse OX40 polyclonal antibodies at 1 μg/mL in PBS for 1 hour on ice. Cells were washed 3-times with cold PBS, and then incubated with a mixture of Alexa480-conjugated anti-goat and anti-sheep IgG polyclonal antibodies. After washing 3 times with cold PBS, cells were analyzed with the LSRII flow cytometer.

T1 sequence (P25942 21-193 limits assumed): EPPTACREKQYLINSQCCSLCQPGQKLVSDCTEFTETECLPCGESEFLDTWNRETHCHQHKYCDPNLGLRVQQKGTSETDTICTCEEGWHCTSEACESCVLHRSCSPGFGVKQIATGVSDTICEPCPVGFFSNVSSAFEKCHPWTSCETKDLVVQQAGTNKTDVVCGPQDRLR
T5 sequence (P36941 28-227 limits assumed): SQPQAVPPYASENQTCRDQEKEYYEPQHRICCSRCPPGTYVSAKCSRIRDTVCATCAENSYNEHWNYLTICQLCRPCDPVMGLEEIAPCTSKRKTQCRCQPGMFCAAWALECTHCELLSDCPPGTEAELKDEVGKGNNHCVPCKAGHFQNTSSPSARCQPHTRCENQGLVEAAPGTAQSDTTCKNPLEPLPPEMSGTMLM

B1: 9B12 (antibody, mouse IgG1, V domains shown)
VH: EVQLQESGPSLVKPSQTLSLTCSVTGDSFTSGYWNWIRKFPGNRLEYMGYISYNGITYHNPSLKSRISITRDTSKNHYYLQLNSVTTEDTATYFCARYRYDYDGGHAMDYWGQGTLVTVSS
VL: DIQMTQTTSSLSASLGDRVTISCRASQDISNYLNWYQQKPDGTVKLLIYYTSKLHSGVPSRFSGSGSRTDYSLTITDLDQEDIATYFCQQGSALPWTFGQGTKVEIKR
notes: mouse IgG1 kappa; also called murine mAb 9B12; mouse anti-human OX40 IgG1κ monoclonal antibody
**Q.** Does B1 bind [1]?
**A.** no binding

**Q.** Does B1 bind [2]?
**A.** no binding

**Q.** Does B1 bind [3]?
**A.** no binding

**Q.** Does B1 bind [4]?
**A.** no binding

**Q.** Does B1 bind [5]?
**A.** no binding

**Q.** What about the “EC50 (read off the curve)” value [6] of the same binder?
**A.** ~1 nM and ~0.5 nM

**Q.** And the “EC50, IFNγ release, donor 645” value [7]?
**A.** 2.38 nM

**Q.** And the “EC50, IFNγ release, donor 651” value [7]?
**A.** 0.758 nM

**Q.** Does B1 bind [8]?
**A.** no binding
